In US10618964B2, “Nanobody against IL-6R” (Ablynx N.V., dated 2020):
Substitutions are numbered along the chain they refer to.

B1: IL6RPMP106F4 (VHH)
VHH: EVQLVESGGGLVQAGGSLRLSCAASGSIFRINAMGWYRQAPGKQRELVAAAISGGSTNYADFVKGRFTISRDNAKNTVYLQMNSLKPGDTAVYYCNALVVSHNYSDYVPFPDDYWGQGTQVTVSS
B2: IL6RPMP105C2 (VHH)
VHH: B1 VHH with K43E, G88E
B3: IL6RPMP101G2 (VHH)
VHH: B1 VHH with G88E
B4: IL6RPMP101F2 (VHH)
VHH: EVQLVESGGGLVQAGGSLRLSCAASGFAFDDYAIGWFRQAPGKEREGVSSISSSNGNTYYADSVRGRFTISSDNAKNTVYLQMNSLKPEDTGVYYCAAIWGIFFNEKMPVGAYDYWGQGTQVTVSS
B5: IL6RPMP101C3 (VHH)
VHH: B4 VHH with Q13R
B6: IL6RPMP105H10 (VHH)
VHH: B4 VHH with L4M, T91A
B7: IL6RPMP101A1 (VHH)
VHH: EVQLVESGGGTVQAGGSLKLSCAASGRTFTNYAMGWFRQAPGKEREFVAAIAYATHFADSVKGRFTISRGNAKNTVYLQMNSLKPEDTAVYYCAADLSLSKMVSKITSDMDYWGKGTLVTVSS
B8: IL6RPMP107G10 (VHH)
VHH: EVQLVESGGGLVQAGGSLRLSCAASGSIENINAMGWYRQAPGKQRDFLAIITDGSKTLYADSVKGRFTISNDNAKNTVYLQMNSLKPEDTAVYYCNAYQAGWGDYWGQGTQVTVSS
B9: IL6RPMP107E4 (VHH)
VHH: B8 VHH with E29D, N30R, I50V, S55D
B10: IL6RPMP120C1 (VHH)
VHH: EVQLVESGGGLVQAGGSLSLSCATSGRTISDDTMAWFRQAPGKEREFVATITFSGARTHYSDSVRDRFTISRDNAKNTVYLQMNSLKSEDTAVYYCAASTKYYSSTYNYIHPAFYDIWGQGTQVTVSS
B11: IL6RPMP120A1 (VHH)
VHH: B10 VHH

Key:
[1] = molecular target: soluble IL-6R in cynomolgous plasma (cynomolgus monkey, UniProt A0A2K5WN54); assay: ELISA 2, periplasmic extract; competitor IL-6; cyno plasma
Procedure: (§1) In this ELISA, plasma was used as a source of native soluble IL-6R. By this assay, we aimed to confirm the alphascreen results and to get a view on the cross-reactivity of the clones towards cynomolgous IL-6R. Human plasma (ELISA 1 and ELISA 3) or cynomolgous plasma (ELISA 2) were pre-incubated with a dilution of the periplasmic extract of the clones together with human IL-6 (50 ng/mL). Subsequently, plasma soluble IL-6R was captured on a B-N12 coated plate and bound IL-6 was detected using anti-IL-6 antibody BAF206 and streptavidin-HRP (ELISA 1 and ELISA 2). The ELISA signal dropped when the Nanobody clone could compete with IL-6 for binding to soluble IL-6R. ELISA 3 was a parallel ELISA in which the detection antibody was replaced by anti-IL-6R antibody BAF227 to exclude false positive competitors, which actually compete with B-N12 (e.g. family 2). Depicted in Table C-5 is the ratio of the OD450 value of the test sample versus the blank OD450 (mock sample). Clones were ordered based on ELISA 1 data.

[2] = molecular target: T1, native soluble IL-6R in human plasma (human, UniProt P08887); assay: ELISA 1, periplasmic extract; competitor IL-6; human plasma
Procedure: as §1

[3] = molecular target: T1, native soluble IL-6R in human plasma; assay: ELISA 3, periplasmic extract; competitor BN-12; human plasma
Procedure: as §1

Row | Binder | OD450 ratio sample/blank [1] | OD450 ratio sample/blank [2] | OD450 ratio sample/blank [3]
1 | B1 | 1.19 | 0.557 | 1.01
2 | B2 | 1.01 | 0.577 | 0.996
3 | B3 | 1.04 | 0.597 | 0.975
4 | B4 | 0.811 | 0.569 | 0.972
5 | B5 | 0.801 | 0.58 | 0.975
6 | B6 | 0.679 | 0.627 | 1.02
7 | B7 | 0.521 | 0.508 | 0.989
8 | B8 | 0.883 | 0.523 | 1.01
9 | B9 | 1.19 | 0.592 | 1.02
10 | B10 | 0.187 | 0.567 | 1.02
11 | B11 | 0.198 | 0.598 | 1.01
